Test results published in publication PMC12445016 (Nature, 2025).

How the values were obtained:
[1] = target: GRK5-phosphorylated ACKR3·CXCL12_(LRHQ) (UniProt P25106); test: pull-down
[2] = target: T1, preactivated arrestin3 (truncated after residue 392) (bovine, UniProt P32120); test: ELISA
T1 chain: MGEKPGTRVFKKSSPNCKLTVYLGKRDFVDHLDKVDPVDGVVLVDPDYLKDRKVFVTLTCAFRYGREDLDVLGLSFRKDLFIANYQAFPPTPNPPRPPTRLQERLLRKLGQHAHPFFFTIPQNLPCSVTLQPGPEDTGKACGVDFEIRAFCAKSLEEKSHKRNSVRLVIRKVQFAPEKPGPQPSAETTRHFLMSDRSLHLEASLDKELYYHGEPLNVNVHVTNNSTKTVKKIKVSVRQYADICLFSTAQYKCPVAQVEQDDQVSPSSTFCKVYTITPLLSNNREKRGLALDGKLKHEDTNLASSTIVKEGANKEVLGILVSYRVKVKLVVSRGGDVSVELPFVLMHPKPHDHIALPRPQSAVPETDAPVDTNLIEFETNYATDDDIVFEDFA

[3] = target: T2, biotinylated Arr3* loaded with inositol hexakisphosphate (IP6) (bovine, UniProt P32120, biotin (EZ-link sulfo-NHS-Biotin; sites not stated)); test: ELISA
T2 chain: T1 chain

Molecule “preactivated arrestin2 (I386A, V387A, F388A mutations in its C-tail) (from UniProt P17870 1-418) (natural protein)” has a percent more pulled down than by pACKR3 (GRK2) [1] of 30%.

“preactivated arrestin3 (truncated after residue 392) (from UniProt P32120 1-392) (domain or fragment)” was tested, and the percent more pulled down than by pACKR3 (GRK2) [1] was 40%.

B1: Fab7 (antigen binding fragment that recognizes active arrestin2 and arrestin3) (Fab, V domains shown)
VH: EVQLVESGGGLVQPGGSLRLSCAASGFNVSSSYIHWVRQAPGKGLEWVASISSYYGYTYYADSVKGRFTISADTSKNTAYLQMNSLRAEDTAVYYCARKSMYHRGWGWLSWVYGAMDYWGQGTLVTVSS
VL: DIQMTQSPSSLSASVGDRVTITCRASQSVSSAVAWYQQKPGKAPKLLIYSASSLYSGVPSRFSGSRSGTDFTLTISSLQPEDFATYYCQQSYYYPITFGQGTKVEIK
B1 was tested, and the IC50 [2] was about 90 nM and the EC50 [3] was about 10 nM.
